Assay results from patent US7468258.

Target: T1, recombinant His-tagged VWF73 peptide substrate labeled with two fluoresceins
T1 chain: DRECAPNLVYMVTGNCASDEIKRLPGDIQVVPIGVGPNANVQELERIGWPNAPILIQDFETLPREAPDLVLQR

B1: ADAMTS13 (A Disintegrin-like And Metalloprotease with ThromboSpondin type 1 motif) (protein)
chain: AAGGILHLELLVAVGPDVFQAHQEDTERYVLTNLNIGAELLRDPSLGAQFRVHLVKMVILTEPEGAPNITANLTSSLLSVCGWSQTINPEDDTDPGHADLVLYITRFDLELPDGNRQVRGVTQLGGACSPTWSCLITEDTGFDLGVTIAHEIGHSFGLEHDGAPGSGCGPSGHVMASDGAAPRAGLAWSPCSRRQLLSLLSAGRARCVWDPPRPQPGSAGHPPDAQPGLYYSANEQCRVAFGPKAVACTFAREHLDMCQALSCHTDPLDQSSCSRLLVPLLDGTECGVEKWCSKGRCRSLVELTPIAAVHGRWSSWGPRSPCSRSCGGGVVTRRRQCNNPRPAFGGRACVGADLQAEMCNTQACEKTQLEFMSQQCARTDGQPLRSSPGGASFYHWGAAVPHSQGDALCRHMCRAIGESFIMKRGDSFLDGTRCMPSGPREDGTLSLCVSGSCRTFGCDGRMDSQQVWDRCQVCGGDNSTCSPRKGSFTAGRAREYVTFLTVTPNLTSVYIANHRPLFTHLAVRIGGRYVVAGKMSISPNTTYPSLLEDGRVEYRVALTEDRLPRLEEIRIWGPLQEDADIQVYRRYGEEYGNLTRPDITFTYFQPKPRQAWVWAAVRGPCSVSCGAGLRWVNYSCLDQARKELVETVQCQGSQQPPAWPEACVLEPCPPYWAVGDFGPCSASCGGGLRERPVRCVEAQGSLLKTLPPARCRAGAQQPAVALETCNPQPCPARWEVSEPSSCTSAGGAGLALENETCVPGADGLEAPVTEGPGSVDEKLPAPEPCVGMSCPPGWGHLDATSAGEKAPSPWGSIRTGAQAAHVWTPAAGSCSVSCGRGLMELRFLCMDSALRVPVQEELCGLASKPGSRREVCQAVPCPARWQYKLAACSVSCGRGVVRRILYCARAHGEDDGEEILLDTQCQGLPRPEPQEACSLEPCPPRWKVMSLGPCSASCGLGTARRSVACVQLDQGQDVEVDEAACAALVRPEASVPCLIADCTYRWHVGTWMECSVSCGDGIQRRRDTCLGPQAQAPVPADFCQHLPKPVTVRGCWAGPCVGQGTPSLVPHEEAAAPGRTTATPAGASLEWSQARGLLFSPAPQPRRLLPGPQENSVQSSACGRQHLEPTGTIDMRGPGQADCAVAIGRPLGEVVTLRVLESSLNCSAGDMLLLWGRLTWRKMCRKLLDMTFSSKTNTLVVRQRCGRPGGGVLLRYGSQLAPETFYRECDMQLFGPWGEIVSPSLSPATSNAGGCRLFINVAPHARIAIHALATNMGAGTEGANASYILIRDTHSLRTTAFHGQQVLYWESESSQAEMEFSEGFLKAQASLRGQYWTLQSWVPEMQDPQSWKGKEGT
  fluorescence of the recombinant peptide during incubation (FRET self-quenching cleavage assay, 96 well plate, fluorometer): With normal pooled plasma (PNP), there is steady increase of fluorescence over time
